Values quoted from earlier work, collected in paper PMC7103376.

Molecular target: 3CLpro (SARS coronavirus) (UniProt P0C6X7)

Substance: 3CLpro (from UniProt P0C6X7)
- Kd: < 100 nM
